In this series the target is LdtRLas ('Candidatus Liberibacter asiaticus', UniProt A0ABN4AZS1 1-171). In words: competition. Conditions: protein: recombinant; tags: N-terminal His6 removed by TEV; chain copies: 2; label: none; blunt.

B1: CD-3 (dsDNA)
DNA 1: TCTTCTAATATTCCTTGTATTTTAATTATGTTCGAATTTTATTTT
DNA 2: AAAATAAAATTCGAACATAATTAAAATACAAGGAATATTAGAAGA
In the case of B1, the binding result is recorded as “binds”.

Source of the values: article PMC3999280.
